In patent US11278600B2, “Human alpha-galactosidase variants” (Codexis, Inc., priority 2014, dated 2022):
Numbering of substitutions follows the chain as printed.

B1: 394 (protein)
chain: LDNGLARTPTMGWLHWERFMCNLDCQEEPDSCISEKLFMEMAERMVSEGWKDAGYEYLCIDDCWMAPQRDSEGRLQADPQRFPHGIRQLANYRHSKGLKLGIYADVGNKTCAGFPGSFGYYDIDAQTFADWGVDLLKFDGCYCDSLENLADGYKHMSLALNRTGRSIVYSCEWPLYMWPFQKPNYTEIRQYCNHWRNFADIDDSWKSIKSILDWTSRNQERIVDVAGPGGWNDPDMLVIGNFGLSWDQQVTQMALWAIMAAPLFMSNDLRHISPQAKALLQDKDVIAINQDPLGKQGYQLRKGDNFEVWERPLSGDAWAVAIINRQEIGGPRSYTIPVASLGKGVACNPACFITQLLPVKRQLGFYNWTSRLKSHINPTGTVLLQLENTMQMSLKDLL
modifications: Synthetic Polypeptide sequence of Variant No. 394 of mature Human GLA
B2: 401 (protein)
chain: B1 chain with R93V, T163S
modifications: Synthetic Polypeptide sequence of Variant No. 401 of mature Human GLA
B3: 403 (protein)
chain: B1 chain with R93V, S166G
modifications: Synthetic Polypeptide sequence of Variant No. 403 of mature Human GLA
B4: 400 (protein)
chain: B1 chain with R93V, L158C
modifications: Synthetic Polypeptide sequence of Variant No. 400 of mature Human GLA
B5: 396 (protein)
chain: B1 chain with R93V, L158M
modifications: Synthetic Polypeptide sequence of Variant No. 396 of mature Human GLA
B6: 398 (protein)
chain: B1 chain with R93V, A159S
modifications: Synthetic Polypeptide sequence of Variant No. 398 of mature Human GLA
B7: 406 (protein)
chain: B1 chain with R93V, R162K
modifications: Synthetic Polypeptide sequence of Variant No. 406 of mature Human GLA
B8: 399 (protein)
chain: B1 chain with R93V, R165K
modifications: Synthetic Polypeptide sequence of Variant No. 399 of mature Human GLA
B9: 397 (protein)
chain: B1 chain with R93V, L158R
modifications: Synthetic Polypeptide sequence of Variant No. 397 of mature Human GLA
B10: 402 (protein)
chain: B1 chain with R93V, S166P, K206A
modifications: Synthetic Polypeptide sequence of Variant No. 402
B11: 405 (protein)
chain: B1 chain with R93V, L158E
modifications: Synthetic Polypeptide sequence of Variant No. 405 of mature Human GLA
B12: 404 (protein)
chain: B1 chain with R93V, S166F
modifications: Synthetic Polypeptide sequence of Variant No. 404 of mature Human GLA
B13: 407 (protein)
chain: B1 chain with R93V, L158H
modifications: Synthetic Polypeptide sequence of Variant No. 407 of mature Human GLA
B14: 395 (protein)
chain: B1 chain with Y92H, R93V, K206A
modifications: Synthetic Polypeptide sequence of Variant No. 395
B15: 361 (protein)
chain: B1 chain with S47R, R93V
modifications: Synthetic Polypeptide sequence of Variant No. 361 of mature Human GLA
B16: 362 (protein)
chain: B1 chain with R44C, R93V
modifications: Synthetic Polypeptide sequence of Variant No. 362 of mature Human GLA

Key:
Type in all cases: biochemical
[1] = HTP-analysis of yeast culture supernatants, no challenge (MUGal hydrolysis); conditions: activity of the variant/activity of Rd4BB (SEQ ID NO: 15)
Method in brief: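 Activity read as 4-methylumbelliferyl α-D-galactopyranoside hydrolysis: fluorescence (355/448 nm) after sodium carbonate stop, following 30-180 min at 37° C with 2 mM MUGal stock at pH 4.6–4.8. Enzyme source is unchallenged culture supernatant of INVSc1 yeast expressing GLA variants, grown 66-84 h at 30° C.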

[2] = HTP-analysis of supernatants pretreated with acid (MUGal hydrolysis); conditions: activity of the variant/activity of Rd4BB (SEQ ID NO: 15); challenge at pH 3.7
Method in brief: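 Yeast INVSc1 supernatant, GLA variants; acid challenge: McIlvaine pH 3.3-4.3, 37° C., 1-3 h. Assay: MUGal in McIlvaine pH 4.8 plus citrate pH 4.3, 37° C., 30-180 min, Na2CO3 stop, Ex 355/Em 448 nm.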

[3] = HTP-analysis of supernatants pretreated with base (MUGal hydrolysis); conditions: activity of the variant/activity of Rd4BB (SEQ ID NO: 15); challenge at pH 9.65
Method in brief: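 Supernatants from INVSc1 yeast expressing GLA variants (SD-Ura, 66-84 h, 30° C) were mixed with McIlvaine buffer pH 7.0-8.2 or 200 mM sodium bicarbonate pH 9.1-9.7 and held 1-18 h at 37° C. Residual activity was then measured on MUGal at pH 4.8/4.3, 37° C, 30-180 min, by fluorescence (Ex 355/Em 448 nm).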

Row | Molecule | Relative Activity of GLA Variants After No Challenge (NC) [1] | Relative Activity of GLA Variants After Challenge at pH 3.7 [2] | Relative Activity of GLA Variants After Challenge at pH 9.65 [3]
1 | B1 | + (0.5 to 1.5 relative activity over Rd4BB (SEQ ID NO: 15)) | + (0.5 to 1.5 relative activity over Rd4BB (SEQ ID NO: 15)) | − (<0.5 relative activity over Rd4BB (SEQ ID NO: 15))
2 | B2 | + (0.5 to 1.5 relative activity over Rd4BB (SEQ ID NO: 15)) | + (0.5 to 1.5 relative activity over Rd4BB (SEQ ID NO: 15)) | − (<0.5 relative activity over Rd4BB (SEQ ID NO: 15))
3 | B3 | + (0.5 to 1.5 relative activity over Rd4BB (SEQ ID NO: 15)) | + (0.5 to 1.5 relative activity over Rd4BB (SEQ ID NO: 15)) | + (0.5 to 1.5 relative activity over Rd4BB (SEQ ID NO: 15))
4 | B4 | + (0.5 to 1.5 relative activity over Rd4BB (SEQ ID NO: 15)) | + (0.5 to 1.5 relative activity over Rd4BB (SEQ ID NO: 15)) | − (<0.5 relative activity over Rd4BB (SEQ ID NO: 15))
5 | B5 | + (0.5 to 1.5 relative activity over Rd4BB (SEQ ID NO: 15)) | + (0.5 to 1.5 relative activity over Rd4BB (SEQ ID NO: 15)) | + (0.5 to 1.5 relative activity over Rd4BB (SEQ ID NO: 15))
6 | B6 | + (0.5 to 1.5 relative activity over Rd4BB (SEQ ID NO: 15)) | ++ (>1.5 to 2.5 relative activity over Rd4BB (SEQ ID NO: 15)) | − (<0.5 relative activity over Rd4BB (SEQ ID NO: 15))
7 | B7 | + (0.5 to 1.5 relative activity over Rd4BB (SEQ ID NO: 15)) | + (0.5 to 1.5 relative activity over Rd4BB (SEQ ID NO: 15)) | + (0.5 to 1.5 relative activity over Rd4BB (SEQ ID NO: 15))
8 | B8 | + (0.5 to 1.5 relative activity over Rd4BB (SEQ ID NO: 15)) | + (0.5 to 1.5 relative activity over Rd4BB (SEQ ID NO: 15)) | + (0.5 to 1.5 relative activity over Rd4BB (SEQ ID NO: 15))
9 | B9 | + (0.5 to 1.5 relative activity over Rd4BB (SEQ ID NO: 15)) | + (0.5 to 1.5 relative activity over Rd4BB (SEQ ID NO: 15)) | + (0.5 to 1.5 relative activity over Rd4BB (SEQ ID NO: 15))
10 | B10 | + (0.5 to 1.5 relative activity over Rd4BB (SEQ ID NO: 15)) | ++ (>1.5 to 2.5 relative activity over Rd4BB (SEQ ID NO: 15)) | + (0.5 to 1.5 relative activity over Rd4BB (SEQ ID NO: 15))
11 | B11 | + (0.5 to 1.5 relative activity over Rd4BB (SEQ ID NO: 15)) | ++ (>1.5 to 2.5 relative activity over Rd4BB (SEQ ID NO: 15)) | + (0.5 to 1.5 relative activity over Rd4BB (SEQ ID NO: 15))
12 | B12 | + (0.5 to 1.5 relative activity over Rd4BB (SEQ ID NO: 15)) | + (0.5 to 1.5 relative activity over Rd4BB (SEQ ID NO: 15)) | − (<0.5 relative activity over Rd4BB (SEQ ID NO: 15))
13 | B13 | + (0.5 to 1.5 relative activity over Rd4BB (SEQ ID NO: 15)) | + (0.5 to 1.5 relative activity over Rd4BB (SEQ ID NO: 15)) | − (<0.5 relative activity over Rd4BB (SEQ ID NO: 15))
14 | B14 | + (0.5 to 1.5 relative activity over Rd4BB (SEQ ID NO: 15)) | + (0.5 to 1.5 relative activity over Rd4BB (SEQ ID NO: 15)) | + (0.5 to 1.5 relative activity over Rd4BB (SEQ ID NO: 15))
15 | B15 | + (0.5 to 1.5 relative activity over Rd4BB (SEQ ID NO: 15)) | + (0.5 to 1.5 relative activity over Rd4BB (SEQ ID NO: 15)) | + (0.5 to 1.5 relative activity over Rd4BB (SEQ ID NO: 15))
16 | B16 | + (0.5 to 1.5 relative activity over Rd4BB (SEQ ID NO: 15)) | + (0.5 to 1.5 relative activity over Rd4BB (SEQ ID NO: 15)) | + (0.5 to 1.5 relative activity over Rd4BB (SEQ ID NO: 15))
